Results on 167 variants are retold here after the RNAGym collection of RNA variant scans (doi:10.7554/elife.80360).

First the molecules themselves.
B1: CPEB3 Ribozyme (parent)
chain: GGGGGCCACAGCAGAAGCGUUCACGUCGCGGCCCCUGUCAGAUUCUGGUGAAUCUGCGAAUUCUGCUGU

In the series the parent is B1. The series is described as follows: self-cleavage, relative activity (ratio to wild type); higher = more cleavage; co-transcriptional.
Turning to C29A G58A, the self-cleavage was 0.435.

For the variant G28A U55C, the self-cleavage was 0.214.

Regarding G28A C57A, the self-cleavage came out at 0.136. In the case of G28A C57G, the self-cleavage is 0.17. On to G28A C57U, for which the self-cleavage amounted to 0.137. The value for G28U U62A was 0.216; that for G28U U62G was 0.189. The value for G28U C34A was 0.181. As to G28C C34G, the self-cleavage was 0.245. Consider G28C C34U, for which the self-cleavage stood at 0.136. Take G28U U64A: the self-cleavage worked out at 0.157.

Regarding G28U U64G, the self-cleavage is 0.147.

Take G28U G47C: the self-cleavage was 0.205. Regarding G28U G47U, the self-cleavage came out at 0.151. Consider G28U G47A, for which the self-cleavage turned out to be 0.173. Turning to C29A U46G, the self-cleavage is 0.759. For the variant G28C G48A, the self-cleavage stood at 0.195. With G28C G48U, the self-cleavage is 0.202. Regarding G28A C33U, the self-cleavage worked out at 0.22. For G28A C33A, the self-cleavage amounted to 0.18. G28A C33G: the self-cleavage stood at 0.195. In the case of G28U G41C, the self-cleavage is 0.163. Take G28U G41U: the self-cleavage was 0.155. Regarding G28U G41A, the self-cleavage came to 0.166. For C29A A40G, the self-cleavage came out at 0.607. Regarding C29A A40C, the self-cleavage amounted to 0.214. Next, C29A A40U: 0.296; G28C U53A: 0.156. As to G28C U53C, the self-cleavage came out at 0.145.

Take G28C U53G: the self-cleavage came out at 0.196. For G28U U36C, the self-cleavage turned out to be 0.135.

Consider G28C G37C, for which the self-cleavage came out at 0.186. For the variant G28C G37U, the self-cleavage stood at 0.129. In the case of G28C G37A, the self-cleavage worked out at 0.117.

For G28A G37A, the self-cleavage was found to be 0.157. Take G28A G37C: the self-cleavage came to 0.193.

For the variant G28A G37U, the self-cleavage amounted to 0.186. Next, G28U U69G: 0.254. Consider G28A A42U, for which the self-cleavage was found to be 0.137.

Take G28A A42G: the self-cleavage stood at 0.131.

On to G28A A42C, for which the self-cleavage came out at 0.177. As for C27U U61C, the self-cleavage turned out to be 0.14. The value for G28C U49C was 0.145. G28A C32U: the self-cleavage is 0.184. In the case of G28A C32A, the self-cleavage came to 0.19. Take G28A C32G: the self-cleavage was 0.139. In the case of C29A C39G, the self-cleavage turned out to be 0.431. Take C29A C39U: the self-cleavage was determined as 0.372.

In the case of C29A U36A, the self-cleavage is 0.215. Next, C29A U36C: 0.428. Consider G28A C54U, for which the self-cleavage was 0.194. Regarding G28A C54G, the self-cleavage is 0.177. Take G28C G56U: the self-cleavage came to 0.17. As for G28C C39G, the self-cleavage was found to be 0.198. Next, C29A G68U: 0.903; C29A G68C: 0.914; G28A U36G: 0.133. As to G28A U36C, the self-cleavage was 0.128. As for G28U U53A, the self-cleavage worked out at 0.188. Regarding G28U U53G, the self-cleavage stood at 0.22. Regarding G28U C39G, the self-cleavage worked out at 0.206. For G28U C39A, the self-cleavage came out at 0.103. For the variant C29A U61A, the self-cleavage worked out at 0.543. Next, C29A A42C: 0.409; C29A A42U: 0.517. Consider C29A A42G, for which the self-cleavage amounted to 0.533.

As for C27U U55C, the self-cleavage was found to be 0.143. The value for C27U U55A was 0.184; that for G28A U69C was 0.412. For the variant G28A U69G, the self-cleavage came out at 0.357.

Regarding G28A U69A, the self-cleavage came to 0.342. The value for G28A U62A was 0.203; that for G28A U62C was 0.218. Take G28C U69A: the self-cleavage was found to be 0.18.

Take C27U U64C: the self-cleavage was determined as 0.245. The value for C27U U64G was 0.197.

With C29A A59G, the self-cleavage was found to be 0.715. For the variant G28U U38C, the self-cleavage was determined as 0.136. For G28U U38G, the self-cleavage came to 0.161. As for G28U U38A, the self-cleavage turned out to be 0.164. As to G28U C33G, the self-cleavage is 0.196. With G28U C33A, the self-cleavage worked out at 0.21. Next, C27U U44G: 0.198.

Consider G28A U43A, for which the self-cleavage stood at 0.156. For G28A U43C, the self-cleavage came out at 0.219. As for G28A U43G, the self-cleavage is 0.0959. For the variant C27U U49G, the self-cleavage stood at 0.421. Take G28A C35U: the self-cleavage came to 0.203. Regarding G28A C35A, the self-cleavage came out at 0.17. The value for G28C U38C was 0.199; that for C29A U38G was 0.218; that for C29A U38A was 0.365. Take C29A U38C: the self-cleavage turned out to be 0.385. Next, C29A G31C: 0.175. For C29A G31A, the self-cleavage came out at 0.296. For the variant C29A G31U, the self-cleavage is 0.221. On to G28C G68A, for which the self-cleavage came out at 0.164. As for G28C G68U, the self-cleavage worked out at 0.221.

For the variant C29A C35U, the self-cleavage worked out at 0.496. The value for C29A C35G was 0.276; that for C29A U44A was 0.55. Next, G28A U46A: 0.184; G28A U46G: 0.146. On to G28A U46C, for which the self-cleavage amounted to 0.192. For G28A U61A, the self-cleavage was 0.193. For the variant G28A U61C, the self-cleavage came to 0.137. Turning to G28C G41C, the self-cleavage was 0.178. In the case of G28C G41U, the self-cleavage amounted to 0.152. For G28C G41A, the self-cleavage is 0.201.

Turning to G28A G31C, the self-cleavage is 0.208. With G28C A42U, the self-cleavage amounted to 0.25. Turning to G28U G50A, the self-cleavage is 0.237.

Regarding G28U G50C, the self-cleavage is 0.183. Regarding G28A C39A, the self-cleavage amounted to 0.198. G28A C39U: the self-cleavage was 0.17. For the variant G28A U64A, the self-cleavage was 0.245. Consider C29A C57G, for which the self-cleavage was determined as 0.225.

For C29A C57A, the self-cleavage amounted to 0.279. Turning to C27U U67A, the self-cleavage stood at 0.276. Take C27U U67C: the self-cleavage worked out at 0.332.

As for G28U G65C, the self-cleavage is 0.132.

As for G28C U62A, the self-cleavage was determined as 0.194. On to G28C U62C, for which the self-cleavage was determined as 0.136. G28C C63U: the self-cleavage came to 0.192. Turning to C29A U64A, the self-cleavage came out at 0.223.

In the case of C29A U64C, the self-cleavage worked out at 0.25. Consider G28C U67C, for which the self-cleavage amounted to 0.168. On to G28C U67G, for which the self-cleavage was determined as 0.295.

Consider C29A U62A, for which the self-cleavage was determined as 0.409. The value for C29A U62C was 0.644; that for G28C A60U was 0.19; that for G28C A60G was 0.168.

For the variant C27U U46A, the self-cleavage is 0.567. With C27U U46G, the self-cleavage was 0.372. As to C27U U46C, the self-cleavage was 0.301. The value for G28C C54G was 0.155; that for G28C C54U was 0.218; that for G28U U46A was 0.163.

For the variant G28U U46G, the self-cleavage was 0.187.

G28U U46C: the self-cleavage amounted to 0.19. G28A C63A: the self-cleavage is 0.182. The value for G28A C63G was 0.178.

On to G28U U67C, for which the self-cleavage amounted to 0.224. Next, G28U U67G: 0.203; G28U U67A: 0.168.

For G28U G68C, the self-cleavage worked out at 0.243. Consider G28C C29U, for which the self-cleavage amounted to 0.137. As for G28C C29A, the self-cleavage stood at 0.144.

In the case of G28C C29G, the self-cleavage amounted to 0.153. The value for G28C A51G was 0.247; that for G28C A51C was 0.119; that for G28C A51U was 0.165.

As to G28A U38G, the self-cleavage is 0.147. Turning to G28A U38C, the self-cleavage was found to be 0.196. Turning to G28C A40U, the self-cleavage came out at 0.215. The value for G28C A40C was 0.218; that for G28C A40G was 0.211; that for G28C G30C was 0.143. On to G28C G30A, for which the self-cleavage turned out to be 0.22.

Take G28U U49G: the self-cleavage was 0.11.

Turning to G28U U49A, the self-cleavage amounted to 0.166.

For the variant G28U U49C, the self-cleavage amounted to 0.178. For the variant G28A U49G, the self-cleavage amounted to 0.22. On to G28A U49C, for which the self-cleavage was determined as 0.238. For the variant G28U G37C, the self-cleavage was found to be 0.172.

Take G28U G37U: the self-cleavage is 0.166. Next, C29A C33A: 0.373.
